Experimental data reported in paper PMC4372372.

Target: rPmMasSPH1 (His-tagged recombinant C-terminal SP-like domain of PmMasSPH1) (Penaeus monodon)

rPmPPAE2 (His-tagged recombinant SP domain of PmPPAE2) (domain or fragment)
PGN-triggered PO activity of shrimp hemolymph in vitro (L-DOPA, change of A490 at 5 min), with 0.25 ug PGN and 1 uM of each recombinant protein, relative to hemolymph alone: 102%
